Where two headings read alike, the source gives them in different places.

This is an account of results in article PMC4513882.

Data set [1] deals with T1, SAMHD1 wt (human, UniProt Q9Y3Z3 1-626). Kind of data set: competition.
For data set [2], the target named is T1, SAMHD1 wt. Nature of the data set: competition. This is another data set of the same source.
The target in data set [3] is T1, SAMHD1 wt. Kind of data set: fluorescence anisotropy.
For a further data set, the target named is SAMHD1 ΔSAM (Δ112) (human, UniProt Q9Y3Z3 113-626, del1-112). Kind of data set: fluorescence anisotropy.
The target of the next data set is SAMHD1 Q548A (human, UniProt Q9Y3Z3 1-626, Q548A). Kind of data set: fluorescence anisotropy.
For another data set, the target named is SAMHD1 R451E (human, UniProt Q9Y3Z3 1-626, R451E). Nature of the data set: fluorescence anisotropy.
A further data set addresses SAMHD1 T592E (human, UniProt Q9Y3Z3 1-626, T592E). Nature of the data set: fluorescence anisotropy.
For data set [4], the target named is T1, SAMHD1 wt. Nature of the data set: fluorescence anisotropy. This is another data set of the same source.

T1 sequence (Q9Y3Z3 whole entry): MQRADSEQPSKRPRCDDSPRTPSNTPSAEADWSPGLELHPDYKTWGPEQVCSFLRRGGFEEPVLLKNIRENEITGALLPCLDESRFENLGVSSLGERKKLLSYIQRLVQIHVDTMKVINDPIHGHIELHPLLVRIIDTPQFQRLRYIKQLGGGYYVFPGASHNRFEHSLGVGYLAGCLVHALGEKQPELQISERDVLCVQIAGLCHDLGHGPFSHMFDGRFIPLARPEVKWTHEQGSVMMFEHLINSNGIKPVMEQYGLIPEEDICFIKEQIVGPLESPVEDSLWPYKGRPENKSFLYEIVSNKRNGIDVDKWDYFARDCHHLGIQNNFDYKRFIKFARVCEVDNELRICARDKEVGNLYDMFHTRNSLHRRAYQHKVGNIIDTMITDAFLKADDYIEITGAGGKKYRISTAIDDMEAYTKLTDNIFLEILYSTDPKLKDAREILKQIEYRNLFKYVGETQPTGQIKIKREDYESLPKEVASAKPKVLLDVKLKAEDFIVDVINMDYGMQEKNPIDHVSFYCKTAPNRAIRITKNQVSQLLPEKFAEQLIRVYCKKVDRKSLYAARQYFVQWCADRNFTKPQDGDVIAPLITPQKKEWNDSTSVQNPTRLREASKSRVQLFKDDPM
SAMHD1 T592E, sequence (Q9Y3Z3 whole entry T592E): as the sequence (Q9Y3Z3 whole entry) above, with T592E counted along it
SAMHD1 Q548A, sequence (Q9Y3Z3 whole entry Q548A): as the sequence (Q9Y3Z3 whole entry) above, with Q548A counted along it
SAMHD1 R451E, sequence (Q9Y3Z3 whole entry R451E): as the sequence (Q9Y3Z3 whole entry) above, with R451E counted along it
SAMHD1 ΔSAM (Δ112), sequence (Q9Y3Z3 113-626, stated change not applied): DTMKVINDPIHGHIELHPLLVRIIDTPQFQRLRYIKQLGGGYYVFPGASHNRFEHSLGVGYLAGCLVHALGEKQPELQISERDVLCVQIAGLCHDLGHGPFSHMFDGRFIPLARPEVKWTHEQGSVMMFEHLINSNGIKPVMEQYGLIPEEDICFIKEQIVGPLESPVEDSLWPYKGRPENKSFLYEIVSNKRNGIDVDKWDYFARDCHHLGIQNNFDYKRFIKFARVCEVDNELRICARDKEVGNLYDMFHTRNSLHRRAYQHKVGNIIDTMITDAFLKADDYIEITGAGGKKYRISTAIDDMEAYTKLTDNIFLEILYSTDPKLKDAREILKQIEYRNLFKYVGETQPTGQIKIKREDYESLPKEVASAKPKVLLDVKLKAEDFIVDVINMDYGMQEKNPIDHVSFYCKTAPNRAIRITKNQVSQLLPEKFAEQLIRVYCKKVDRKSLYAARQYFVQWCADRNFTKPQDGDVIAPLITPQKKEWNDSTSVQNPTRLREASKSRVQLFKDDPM

B1: ssRNA90 (ssRNA)
RNA: GGGGAAUUGUGAGCGGAUAACAAUUCCCCUCUAGAAAUAAUUUUGUUUAACUUUAAGAAGGAGAUAUACAUAUGCACCAUCAUCAUCAUC
Turning to B1, in the data set with SAMHD1 wt [1], the binding result is reported as “binds”.

B2: ssDNA90 (ssDNA)
DNA: TGGAGAATCCCGGTGCCGAGGCCGCTCAATTGGTCGTAGACAGCTCTAGCACCGCTTGAAGGAGATATACATACATTAATTGCGTTGCGC
With B2, the binding result with SAMHD1 wt [2] is “binds”.

B3: RNA:DNA40 (DNA:RNA)
RNA: CACCAAUUCGUCUUAGGGUUAAUCUUGAAGCUAGAGUUAA
DNA: TTAACTCTAGCTTCAAGATTAACCCTAAGACGAATTGGTG
In the case of B3, the “apparent K (half saturation)” value with SAMHD1 wt [3] came out at 2000 ± 400 nM.

B4: ssRNA40 (ssRNA)
RNA: B3 RNA
For B4, the binding result in the data set with SAMHD1 ΔSAM (Δ112), in the data set with SAMHD1 Q548A, with SAMHD1 R451E and with SAMHD1 T592E was “binds” in each case.

B5: ssDNA57 (ssDNA)
DNA: TGGAGAATCCCGGTGCCGAGGCCGCTCAATTGGTCGTAGACAGCTCTAGCACCGCTT
B5: the “apparent K (half saturation)” value with SAMHD1 wt [3] came to 450 ± 130 nM. Further, the binding result with SAMHD1 Q548A and with SAMHD1 T592E was “binds” in each case.

B6: dsDNA57 (dsDNA)
DNA 1: B5 DNA
DNA 2: AAGCGGTGCTAGAGCTGTCTACGACCAATTGAGCGGCCTCGGCACCGGGATTCTCCA
B6: the “apparent K (half saturation)” value in the data set with SAMHD1 wt [4] turned out to be 18 ± 2 µM.
